Measurements published in PMC10509353, “Increased intracellular persulfide levels attenuate HlyU-mediated hemolysin transcriptional activation in Vibrio cholerae” (The Journal of Biological Chemistry, 2023).

Experiments:
HlyU (VcHlyU), WT [1] = target: T1, HlyU (VcHlyU), WT (Vibrio cholerae, UniProt P52695 1-108); assay: fluorescence anisotropy; reduced HlyU (TCEP), 100 mM NaCl; n=4; Table 1: 25 mM Hepes pH 7, 100 mM NaCl, 1 mM EDTA, 25 °C; Methods: 10 mM Hepes pH 7.0, 0.1 M NaCl, with or without 2 mM TCEP, 10 nM DNA; details: protein: recombinant; chain copies: 2; label: 5'-fluorescein on strand 1; blunt
T1 sequence: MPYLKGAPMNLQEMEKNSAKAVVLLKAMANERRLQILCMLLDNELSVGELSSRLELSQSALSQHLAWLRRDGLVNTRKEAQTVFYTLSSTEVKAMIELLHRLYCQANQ

HlyU (VcHlyU), WT [2] = target: T1, HlyU (VcHlyU), WT; assay: fluorescence anisotropy; HlyU pretreated with 5-fold H2O2; text: no change in affinity; n=3; Table 1: 25 mM Hepes pH 7, 100 mM NaCl, 1 mM EDTA, 25 °C; Methods: 10 mM Hepes pH 7.0, 0.1 M NaCl, with or without 2 mM TCEP, 10 nM DNA; details: protein: recombinant; chain copies: 2; label: 5'-fluorescein on strand 1; blunt
[3] = target: the molecule itself; assay: SEC; calibrated Superdex 75 gel-filtration column; 25 mM MES, 0.2 M NaCl, 2 mM EDTA, 2 mM TCEP, 5% glycerol, pH 6, 25 °C

B1: hlyO operator (hlyA promoter) (dsDNA)
DNA 1: TATAAATTAATTCAGACTAAATTAGTTCAAA
DNA 2: TTTGAACTAATTTAGTCTGAATTAATTTATA
Ka (HlyU (VcHlyU), WT [1]): 0.4 ± 0.08 10^9 M^-1
Ka (HlyU (VcHlyU), WT [2]): 0.19 ± 0.03 10^9 M^-1

B2: Vibrio cholerae HlyU (natural protein)
chain: MPYLKGAPMNLQEMEKNSAKAVVLLKAMANERRLQILCMLLDNELSVGELSSRLELSQSALSQHLAWLRRDGLVNTRKEAQTVFYTLSSTEVKAMIELLHRLYCQANQ
notes: also called VcHlyU; WT HlyU
stoichiometry N [3]: 2
